This note sets out measurements from patent US20200048350A1 (INHIBRX BIOSCIENCES, published 2020).

T1: B7H3 (UniProt Q5ZPR3 29-534, limits assumed)
T1 construct: whole, on cells; also called CD276
T1 sequence (looked up): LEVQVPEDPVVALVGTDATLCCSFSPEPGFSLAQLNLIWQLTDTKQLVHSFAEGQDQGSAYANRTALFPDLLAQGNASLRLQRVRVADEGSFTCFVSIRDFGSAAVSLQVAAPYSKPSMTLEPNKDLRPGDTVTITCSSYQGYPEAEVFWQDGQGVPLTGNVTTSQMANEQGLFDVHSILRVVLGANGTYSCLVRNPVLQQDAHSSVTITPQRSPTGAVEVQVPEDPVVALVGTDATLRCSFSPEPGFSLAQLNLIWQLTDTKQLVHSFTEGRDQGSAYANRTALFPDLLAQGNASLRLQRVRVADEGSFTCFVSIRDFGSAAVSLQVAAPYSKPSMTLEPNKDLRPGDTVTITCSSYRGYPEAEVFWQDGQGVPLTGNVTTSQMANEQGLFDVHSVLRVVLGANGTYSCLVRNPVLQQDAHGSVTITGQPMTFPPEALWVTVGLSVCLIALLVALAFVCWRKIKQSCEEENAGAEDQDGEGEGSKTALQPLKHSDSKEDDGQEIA

T2: DLL3 (human, UniProt Q9NYJ7 27-618)
T2 construct: also called Delta-like 3; Human DLL3
T2 sequence: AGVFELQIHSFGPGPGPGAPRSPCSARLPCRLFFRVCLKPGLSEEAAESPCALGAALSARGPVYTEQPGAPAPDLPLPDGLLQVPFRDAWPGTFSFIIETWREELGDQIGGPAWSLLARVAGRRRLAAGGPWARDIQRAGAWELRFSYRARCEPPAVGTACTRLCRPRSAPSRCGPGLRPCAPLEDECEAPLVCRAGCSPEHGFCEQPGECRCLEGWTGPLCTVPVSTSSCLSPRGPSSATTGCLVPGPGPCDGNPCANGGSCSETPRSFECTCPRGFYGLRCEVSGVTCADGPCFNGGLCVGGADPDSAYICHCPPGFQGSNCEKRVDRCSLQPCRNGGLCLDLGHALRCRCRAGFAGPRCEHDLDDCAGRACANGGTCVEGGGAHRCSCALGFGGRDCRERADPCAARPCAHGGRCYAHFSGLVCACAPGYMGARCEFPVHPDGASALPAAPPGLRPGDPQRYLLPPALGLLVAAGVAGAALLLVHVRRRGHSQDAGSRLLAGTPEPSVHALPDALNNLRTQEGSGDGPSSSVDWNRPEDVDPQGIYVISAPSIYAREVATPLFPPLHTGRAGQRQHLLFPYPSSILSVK

B1: cx5187 (other)
chain 1: EVQLVESGGGEVQPGGSLRLSCAASGFSFSSNVMMWVRQAPGKGLEWVSTIYSSGTGTFYAESVKGRFTISRDNAKNTLYLQMSSLRPEDTAVYYCATSGPVRGWGPRSQGTLVTVKPPGGGGDKTHTCPPCPAPGGPSVFLFPPKPKDTLMISRTPEVTCVVVDVSHEDPEVKFNWYVDGVEVHNAKTKPREEQYNSTYRVVSVLTVLHQDWLNGKEYKCKVSNKALPAPIEKTISKAKGQPREPQVYTLPPCRDELTKNQVSLWCLVKGFYPSDIAVEWESNGQPENNYKTTPPVLDSDGSFFLYSKLTVDKSRWQQGNVFSCSVMHEALHNHYTQKSLSLSPTGGGGGSGGGGGSGGGGGSEVQLVESGGGLVQPGGSLRLSCAASGFTFNTYAMNWVRQAPGKCLEWVARIRSKYNNYATYYADSVKGRFTISRDDAKNTLYLQMSSLRAEDTAVYYCVRHGNFGNSYVSWFAYWGQGTLVTVKPGGGGEVQLVESGGGEVQPGGSLRLSCAASGFTFSSYHMSWFRQAPGKQREPVATSHHGGTTNYAGSVKGRFTISRDNAKNTVYLQMNTLRAEDTAVYYCKADHGYQGRGYWGQGTLVTVKP
chain 2: DKTHTCPPCPAPGGPSVFLFPPKPKDTLMISRTPEVTCVVVDVSHEDPEVKFNWYVDGVEVHNAKTKPREEQYNSTYRVVSVLTVLHQDWLNGKEYKCKVSNKALPAPIEKTISKAKGQPREPQVCTLPPSRDELTKNQVSLSCAVKGFYPSDIAVEWESNGQPENNYKTTPPVLDSDGSFFLVSKLTVDKSRWQQGNVFSCSVMHEALHNRYTQKSLSLSPTGGGGGSGGGGGSGGGGGSQAVVTQEPSLTVSPGGTVTLTCGSSTGAVTTSNYANWVQQKPGQAFRGLIGGTNKRAPGVPARFSGSLLGGKAALTISGAQPEDEADYYCALWYSNHWVFGCGTKLEIKGGGGEVQLLESGGGEVQPGGSLRLSCAASGFSFSINAMGWYRQAPGKRREFVAAIESGRNTVYAESVKGRFTISRDNAKNTVYLQMSSLRAEDTAVYYCGLLKGNRVVSPSVAYWGQGTLVTVKP
notes: hole 91, 93 or 296, differing at the C-terminal end; the first is written; also called bivalent, bi-epitopic B7H3-targeted constrained CD3 engaging construct; Knob-VH
B2: cx5965 (other)
chain 1: EVQLVESGGGEVQPGGSLRLSCAASGFSFSSNVMMWVRQAPGKGLEWVSTIYSSGTGTFYAESVKGRFTISRDNAKNTLYLQMSSLRPEDTAVYYCATSGPVRGWGPRSQGTLVTVKPPGGGGDKTHTCPPCPAPGGPSVFLFPPKPKDTLMISRTPEVTCVVVDVSHEDPEVKFNWYVDGVEVHNAKTKPREEQYNSTYRVVSVLTVLHQDWLNGKEYKCKVSNKALPAPIEKTISKAKGQPREPQVYTLPPCRDELTKNQVSLWCLVKGFYPSDIAVEWESNGQPENNYKTTPPVLDSDGSFFLYSKLTVDKSRWQQGNVFSCSVMHEALHNHYTQKSLSLSPTGGGGGSGGGGGSGGGGGSEVQLVESGGGLVQPGGSLRLSCAASGFTFNTYAMNWVRQAPGKCLEWVARIRSKYNNYATYYADSVKGRFTISRDDAKNTLYLQMSSLRAEDTAVYYCVRHGNFGNSYVSWFAYWGQGTLVTVKP
chain 2: B1 chain 2
notes: Fc alternatives printed; first written; Short peptide linkers only 'e.g.'; also called monovalent B7H3-targeting constrained CD3 engaging construct (N-terminal sdAb)
B3: cx5873 (other)
chain 1: DKTHTCPPCPAPGGPSVFLFPPKPKDTLMISRTPEVTCVVVDVSHEDPEVKFNWYVDGVEVHNAKTKPREEQYNSTYRVVSVLTVLHQDWLNGKEYKCKVSNKALPAPIEKTISKAKGQPREPQVYTLPPCRDELTKNQVSLWCLVKGFYPSDIAVEWESNGQPENNYKTTPPVLDSDGSFFLYSKLTVDKSRWQQGNVFSCSVMHEALHNHYTQKSLSLSPTGGGGGSGGGGGSGGGGGSEVQLVESGGGLVQPGGSLRLSCAASGFTFNTYAMNWVRQAPGKCLEWVARIRSKYNNYATYYADSVKGRFTISRDDAKNTLYLQMSSLRAEDTAVYYCVRHGNFGNSYVSWFAYWGQGTLVTVKPGGGGEVQLVESGGGEVQPGGSLRLSCAASGFTFSSYHMSWFRQAPGKQREPVATSHHGGTTNYAGSVKGRFTISRDNAKNTVYLQMNTLRAEDTAVYYCKADHGYQGRGYWGQGTLVTVKP
chain 2: B1 chain 2
notes: Fc alternatives printed; first written; Short peptide linkers only 'e.g.'; also called monovalent B7H3-targeting constrained CD3 engaging construct (C-terminal sdAb)
B4: cx5823 (other)
chain 1: B1 chain 1 with T346G, P540L
chain 2: B1 chain 2 with T223G
notes: Short peptide linkers only 'e.g.'; also called bivalent B7H3-targeting constrained CD3 engaging construct
B5: cx5801 (other)
chain 1: DKTHTCPPCPAPGGPSVFLFPPKPKDTLMISRTPEVTCVVVDVSHEDPEVKFNWYVDGVEVHNAKTKPREEQYNSTYRVVSVLTVLHQDWLNGKEYKCKVSNKALPAPIEKTISKAKGQPREPQVYTLPPCRDELTKNQVSLWCLVKGFYPSDIAVEWESNGQPENNYKTTPPVLDSDGSFFLYSKLTVDKSRWQQGNVFSCSVMHEALHNHYTQKSLSLSPTGGGGGSGGGGGSGGGGGSEVQLVESGGGLVQPGGSLRLSCAASGFTFNTYAMNWVRQAPGKCLEWVARIRSKYNNYATYYADSVKGRFTISRDDAKNTLYLQMSSLRAEDTAVYYCVRHGNFGNSYVSWFAYWGQGTLVTVKPGGGGEVQLVESGGGEVQPGGSLRLSCGPSEIITSDKSMGWVRQAPGKQRNLVAGISNVGSTNYAQSVKGRFTISRDNAKNTVYLQMSSLRAEDTAVYYCYARDFENEYWGQGTLVTVKP
chain 2: B1 chain 2
notes: Fc alternatives printed; first written; Short peptide linkers only 'e.g.'; also called monovalent DLL3-targeted constrained CD3 engaging construct (C-terminal sdAb)
B6: cx5352 (other)
chain 1: EVQLVESGGGEVQPGGSLRLSCAASGSIFSINAMGWYRQAPGKQRELVAGFTGDTNTIYAESVKGRFTISRDNAKNTVYLQMSSLRAEDTAVYYCAADVQLFSRDYEFYWGQGTLVTVKPPGGGGDKTHTCPPCPAPGGPSVFLFPPKPKDTLMISRTPEVTCVVVDVSHEDPEVKFNWYVDGVEVHNAKTKPREEQYNSTYRVVSVLTVLHQDWLNGKEYKCKVSNKALPAPIEKTISKAKGQPREPQVYTLPPCRDELTKNQVSLWCLVKGFYPSDIAVEWESNGQPENNYKTTPPVLDSDGSFFLYSKLTVDKSRWQQGNVFSCSVMHEALHNHYTQKSLSLSPTGGGGGSGGGGGSGGGGGSEVQLVESGGGLVQPGGSLRLSCAASGFTFNTYAMNWVRQAPGKCLEWVARIRSKYNNYATYYADSVKGRFTISRDDAKNTLYLQMSSLRAEDTAVYYCVRHGNFGNSYVSWFAYWGQGTLVTVKPGGGGEVQLVESGGGEVQPGGSLRLSCGPSEIITSDKSMGWVRQAPGKQRNLVAGISNVGSTNYAQSVKGRFTISRDNAKNTVYLQMSSLRAEDTAVYYCYARDFENEYWGQGTLVTVKP
chain 2: B1 chain 2
notes: Fc alternatives printed; first written; Short peptide linkers only 'e.g.'
B7: cx5800 (other)
chain 1: EVQLVESGGGEVQPGGSLRLSCAASGSIFSINAMGWYRQAPGKQRELVAGFTGDTNTIYAESVKGRFTISRDNAKNTVYLQMSSLRAEDTAVYYCAADVQLFSRDYEFYWGQGTLVTVKPPGGGGDKTHTCPPCPAPGGPSVFLFPPKPKDTLMISRTPEVTCVVVDVSHEDPEVKFNWYVDGVEVHNAKTKPREEQYNSTYRVVSVLTVLHQDWLNGKEYKCKVSNKALPAPIEKTISKAKGQPREPQVYTLPPCRDELTKNQVSLWCLVKGFYPSDIAVEWESNGQPENNYKTTPPVLDSDGSFFLYSKLTVDKSRWQQGNVFSCSVMHEALHNHYTQKSLSLSPTGGGGGSGGGGGSGGGGGSEVQLVESGGGLVQPGGSLRLSCAASGFTFNTYAMNWVRQAPGKCLEWVARIRSKYNNYATYYADSVKGRFTISRDDAKNTLYLQMSSLRAEDTAVYYCVRHGNFGNSYVSWFAYWGQGTLVTVKP
chain 2: B1 chain 2
notes: Fc alternatives printed; first written; Short peptide linkers only 'e.g.'; also called monovalent DLL3-targeted constrained CD3 engaging construct (N-terminal sdAb)

Positions count from the first letter of the chain named.

T3 sequence (P07766 23-207): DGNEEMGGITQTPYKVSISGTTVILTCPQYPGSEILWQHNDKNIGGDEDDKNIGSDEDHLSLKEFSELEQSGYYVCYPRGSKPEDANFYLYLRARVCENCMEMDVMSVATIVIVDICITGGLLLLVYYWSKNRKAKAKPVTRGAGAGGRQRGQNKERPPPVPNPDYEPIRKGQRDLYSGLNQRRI

The target in one test is T1, B7H3. Nature of the test: cell binding assay on A375 cells.
B1: the binding result is listed as “binds”. The same measure, in the same setting: the value for B2 was “binds”; that for B3 was “binds”.

Another test addresses T3, CD3 (human, UniProt P07766 23-207).
T3 construct: whole, on cells; CD3 is a multi-chain complex; also called CD3ε; CD3 on the surface of primary T cells
The test is described as follows: cell binding assay on isolated primary T cells.
Turning to B1, the binding result is “no binding”. The same measure, in the same setting: the result for B2 reads “no binding”; that for B3, “no binding”; that for B4, “no binding”.

The target in a further test is T2, DLL3. The test is described as follows: flow cytometry on SHP-77 cells, anti-human IgG Fc secondary. How it is done:
(§1) Binding of exemplary multispecific constructs containing an antigen-binding domain directed against DLL3 were assessed for binding to DLL3 positive SHP-77 tumor cells or primary T-cells. […] These binding assays were conducted by flow cytometry, wherein bound constructs were detected using a fluorophore-conjugated anti-human IgG Fc secondary antibody.
For B5, the binding result is listed as “binds”. As to B6, the binding result is on record as “binds”. On to B7, for which the binding result is reported as “binds”.

The target in the next test is T3, CD3. The test is described as follows: flow cytometry on primary T cells, anti-human IgG Fc secondary. How it is done:
as §1
On the technique in general: A flow cytometer gives signals particle by particle.
On to B5, for which the binding result is recorded as “no binding”. Still for that read-out and setting: the result for B6 reads “no binding”; that for B7, “no binding”.
